Reference: PMC10836093, “Ensemble-based design of tau to inhibit aggregation while preserving biological activity” (Research Square, 2024)

B1: P301S R2R3_(294-311) peptide (peptide)
peptide: Ac-KDNIKHVSGGGSVQIVYK-NH2
notes: also called mutant 4R fragment; source: synthetic peptide (Genscript, >95% purity), disaggregated in TFA
B2: WT R2R3_(294-311) peptide (peptide)
peptide: Ac-KDNIKHVPGGGSVQIVYK-NH2
notes: also called 4R-derived peptide; source: synthetic peptide (Genscript, >95% purity), disaggregated in TFA

Molecular target: the molecule itself
Assay: ThT fluorescence aggregation assay; peptide alone, 50-800 μM in 1X PBS pH 7.4, 1 mM DTT, 25 μM ThT, 37 °C, no inducer; self-assembly into amyloid fibrils, t1/2max from fitted curves

Protein	t1/2max of ThT aggregation at 100 μM [h]	t1/2max of ThT aggregation at 800 μM [h]
B1	52 ± 14	7.5 ± 1
B2	–	46 ± 13
